Measured values published in paper PMC9482650, “Quantitative fragmentomics allow affinity mapping of interactomes” (Nature Communications, 2022).

T1: APBA2_1, Q99767
T1 sequence (Q99767 563-664, limits assumed, looked up): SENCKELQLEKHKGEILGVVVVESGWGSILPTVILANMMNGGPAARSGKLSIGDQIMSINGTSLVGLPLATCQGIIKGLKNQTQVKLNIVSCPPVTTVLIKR

T2: ARHGEF11, O15085
T2 sequence (O15085 42-136, limits assumed, looked up): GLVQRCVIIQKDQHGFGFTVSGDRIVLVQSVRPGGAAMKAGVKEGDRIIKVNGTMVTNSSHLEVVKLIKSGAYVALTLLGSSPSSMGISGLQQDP

T3: GRIP1_2, Q9Y3R0
T3 sequence (Q9Y3R0 145-248, limits assumed, looked up): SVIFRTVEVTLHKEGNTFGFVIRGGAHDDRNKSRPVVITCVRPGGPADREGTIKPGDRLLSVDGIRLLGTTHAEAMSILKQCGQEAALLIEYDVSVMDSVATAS

T4: GRIP1_3, Q9Y3R0
T4 sequence (Q9Y3R0 247-346, limits assumed, looked up): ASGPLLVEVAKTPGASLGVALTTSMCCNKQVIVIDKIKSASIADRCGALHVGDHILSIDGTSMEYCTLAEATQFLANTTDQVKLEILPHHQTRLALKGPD

T5: LIN7C, Q9NUP9
T5 sequence (Q9NUP9 88-185, limits assumed, looked up): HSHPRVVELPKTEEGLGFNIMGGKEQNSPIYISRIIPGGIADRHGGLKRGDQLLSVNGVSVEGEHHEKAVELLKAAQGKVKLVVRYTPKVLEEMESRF

T6: NHERF3_1, Q5T2W1
T6 sequence (Q5T2W1 4-100, limits assumed, looked up): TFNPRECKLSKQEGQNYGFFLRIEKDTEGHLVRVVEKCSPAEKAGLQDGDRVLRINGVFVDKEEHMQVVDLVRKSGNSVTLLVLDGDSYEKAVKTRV

T7: NHERF3_3, Q5T2W1
T7 sequence (Q5T2W1 238-333, limits assumed, looked up): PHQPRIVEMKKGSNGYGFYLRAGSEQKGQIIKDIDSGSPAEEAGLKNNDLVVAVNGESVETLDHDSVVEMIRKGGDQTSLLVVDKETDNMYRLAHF

T8: RADIL, Q96JH8
T8 sequence (Q96JH8 971-1071, limits assumed, looked up): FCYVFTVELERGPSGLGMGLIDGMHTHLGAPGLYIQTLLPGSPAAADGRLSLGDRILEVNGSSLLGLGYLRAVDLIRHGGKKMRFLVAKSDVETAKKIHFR

T9: RHPN1, Q8TCX5
T9 sequence (Q8TCX5 508-602, limits assumed, looked up): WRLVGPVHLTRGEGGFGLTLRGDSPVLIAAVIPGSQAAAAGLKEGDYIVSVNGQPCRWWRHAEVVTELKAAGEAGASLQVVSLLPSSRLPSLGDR

T10: SNTG1, Q9NSN8
T10 sequence (Q9NSN8 52-150, limits assumed, looked up): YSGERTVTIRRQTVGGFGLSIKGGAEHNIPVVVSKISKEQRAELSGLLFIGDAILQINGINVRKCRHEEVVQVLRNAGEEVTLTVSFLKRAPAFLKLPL

T11: SYNJ2BP, P57105
T11 sequence (P57105 8-110, limits assumed, looked up): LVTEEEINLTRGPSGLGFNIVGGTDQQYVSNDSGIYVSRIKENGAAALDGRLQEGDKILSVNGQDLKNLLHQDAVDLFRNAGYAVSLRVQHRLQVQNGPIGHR

T12: TJP3_3, O95049
T12 sequence (O95049 375-456, limits assumed, looked up): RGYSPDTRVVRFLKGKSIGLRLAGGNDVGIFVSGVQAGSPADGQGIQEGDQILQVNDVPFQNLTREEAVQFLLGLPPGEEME

B1: DENND5A, Q6IQ26 (peptide)
chain: ETSLVKGIDI
B2: EFNB3, Q15768 (peptide)
chain: QSPPNIYYKV
B3: SSTR5, P35346 (peptide)
chain: ANGLMQTSKL
B4: MCM7, P33993 (peptide)
chain: NASRTRITFV

Tests used:
Experiment in all cases: holdup assay
Set-up in all cases: key: below the threshold = too weak to quantify, mostly under pKd 3.1 to 4
Details in all cases: plain residues with an end cap or a label only (N-terminal biotin on a linker: ado-ado)
APBA2_1, Q99767 = molecular target: T1, APBA2_1, Q99767
ARHGEF11, O15085 = molecular target: T2, ARHGEF11, O15085
ARHGEF12, Q9NZN5-2 = molecular target: ARHGEF12, Q9NZN5-2
Chain of ARHGEF12, Q9NZN5-2 (Q9NZN5 other isoform, or with tags, fused parts or gaps): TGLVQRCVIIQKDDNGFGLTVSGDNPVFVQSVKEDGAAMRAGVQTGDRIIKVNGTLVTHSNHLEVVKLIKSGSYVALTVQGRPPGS

CASK, O14936 = molecular target: CASK, O14936
Chain of CASK, O14936 (O14936 487-570): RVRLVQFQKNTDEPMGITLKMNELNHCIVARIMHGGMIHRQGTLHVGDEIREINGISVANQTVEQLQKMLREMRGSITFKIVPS

DLG2_2, Q15700 = molecular target: DLG2_2, Q15700
DLG2_3, Q15700 = molecular target: DLG2_3, Q15700
GRID2IP_1, A4D2P6 = molecular target: GRID2IP_1, A4D2P6
Chain of GRID2IP_1, A4D2P6 (A4D2P6 1-87): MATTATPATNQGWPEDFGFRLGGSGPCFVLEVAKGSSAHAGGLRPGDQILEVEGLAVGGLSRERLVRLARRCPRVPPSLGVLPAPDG

GRIP1_2, Q9Y3R0 = molecular target: T3, GRIP1_2, Q9Y3R0
GRIP1_3, Q9Y3R0 = molecular target: T4, GRIP1_3, Q9Y3R0
GRIP2_6, Q9C0E4 = molecular target: GRIP2_6, Q9C0E4
Chain of GRIP2_6, Q9C0E4 (Q9C0E4 648-740): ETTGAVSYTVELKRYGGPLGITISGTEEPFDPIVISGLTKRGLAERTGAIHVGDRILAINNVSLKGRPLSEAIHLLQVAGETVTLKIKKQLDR

HTRA1, Q92743 = molecular target: HTRA1, Q92743
Chain of HTRA1, Q92743 (Q92743 360-477): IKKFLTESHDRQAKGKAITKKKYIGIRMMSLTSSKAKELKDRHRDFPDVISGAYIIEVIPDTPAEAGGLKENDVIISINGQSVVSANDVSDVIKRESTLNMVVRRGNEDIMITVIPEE

IL16_4, Q14005 = molecular target: IL16_4, Q14005
Chain of IL16_4, Q14005 (Q14005 1229-1329): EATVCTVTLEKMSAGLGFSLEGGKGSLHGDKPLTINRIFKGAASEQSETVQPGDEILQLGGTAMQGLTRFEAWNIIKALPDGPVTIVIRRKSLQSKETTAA

Inadl_10, Q8NI35 = molecular target: Inadl_10, Q8NI35
Chain of Inadl_10, Q8NI35 (Q8NI35 1673-1763): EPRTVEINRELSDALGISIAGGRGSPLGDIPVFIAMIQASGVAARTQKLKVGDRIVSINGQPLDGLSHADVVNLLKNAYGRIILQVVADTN

Inadl_2, Q8NI35 = molecular target: Inadl_2, Q8NI35
Chain of Inadl_2, Q8NI35 (Q8NI35 238-335): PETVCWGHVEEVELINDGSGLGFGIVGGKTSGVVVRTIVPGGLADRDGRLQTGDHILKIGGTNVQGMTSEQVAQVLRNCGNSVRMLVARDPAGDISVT

LIN7C, Q9NUP9 = molecular target: T5, LIN7C, Q9NUP9
LNX1_2, Q8TBB1 = molecular target: LNX1_2, Q8TBB1
Chain of LNX1_2, Q8TBB1 (Q8TBB1 371-470): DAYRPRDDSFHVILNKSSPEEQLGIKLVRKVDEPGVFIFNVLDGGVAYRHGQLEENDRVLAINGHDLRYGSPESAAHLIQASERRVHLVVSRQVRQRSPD

MAGI1_1, Q96QZ7 = molecular target: MAGI1_1, Q96QZ7
Chain of MAGI1_1, Q96QZ7 (Q96QZ7 1-106): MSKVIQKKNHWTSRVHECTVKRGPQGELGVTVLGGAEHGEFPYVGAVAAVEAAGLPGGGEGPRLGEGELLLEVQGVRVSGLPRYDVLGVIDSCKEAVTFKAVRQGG

NHERF3_1, Q5T2W1 = molecular target: T6, NHERF3_1, Q5T2W1
NHERF3_3, Q5T2W1 = molecular target: T7, NHERF3_3, Q5T2W1
PDZRN4_1, Q6ZMN7 = molecular target: PDZRN4_1, Q6ZMN7
Chain of PDZRN4_1, Q6ZMN7 (Q6ZMN7 213-318): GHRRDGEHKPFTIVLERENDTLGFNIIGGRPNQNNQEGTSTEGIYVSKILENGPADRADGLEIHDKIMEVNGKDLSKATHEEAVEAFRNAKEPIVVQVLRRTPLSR

RADIL, Q96JH8 = molecular target: T8, RADIL, Q96JH8
RHPN1, Q8TCX5 = molecular target: T9, RHPN1, Q8TCX5
SNTG1, Q9NSN8 = molecular target: T10, SNTG1, Q9NSN8
SYNJ2BP, P57105 = molecular target: T11, SYNJ2BP, P57105
TJP1_2, Q07157 = molecular target: TJP1_2, Q07157
Chain of TJP1_2, Q07157 (Q07157 181-274): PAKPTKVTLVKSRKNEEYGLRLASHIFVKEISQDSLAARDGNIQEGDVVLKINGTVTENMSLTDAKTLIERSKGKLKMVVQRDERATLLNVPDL

TJP3_3, O95049 = molecular target: T12, TJP3_3, O95049

Row | Binder | pKd (APBA2_1, Q99767) | pKd (ARHGEF11, O15085) | pKd (ARHGEF12, Q9NZN5-2) | pKd (CASK, O14936) | pKd (DLG2_2, Q15700) | pKd (DLG2_3, Q15700) | pKd (GRID2IP_1, A4D2P6) | pKd (GRIP1_2, Q9Y3R0) | pKd (GRIP1_3, Q9Y3R0) | pKd (GRIP2_6, Q9C0E4) | pKd (HTRA1, Q92743) | pKd (IL16_4, Q14005) | pKd (Inadl_10, Q8NI35) | pKd (Inadl_2, Q8NI35) | pKd (LIN7C, Q9NUP9) | pKd (LNX1_2, Q8TBB1) | pKd (MAGI1_1, Q96QZ7) | pKd (NHERF3_1, Q5T2W1) | pKd (NHERF3_3, Q5T2W1) | pKd (PDZRN4_1, Q6ZMN7) | also measured
1 | B1 | below the threshold | 3.79 | 4.17 | below the threshold | below the threshold | below the threshold | below the threshold | below the threshold | below the threshold | 3.55 | 3.6 | below the threshold | below the threshold | below the threshold | below the threshold | below the threshold | 3.55 | below the threshold | below the threshold | below the threshold | pKd (RADIL, Q96JH8): below the threshold; pKd (RHPN1, Q8TCX5): 3.56; pKd (SNTG1, Q9NSN8): below the threshold; pKd (SYNJ2BP, P57105): below the threshold; pKd (TJP1_2, Q07157): 4.03; pKd (TJP3_3, O95049): below the threshold
2 | B2 | below the threshold | 4.15 | below the threshold | below the threshold | below the threshold | below the threshold | below the threshold | 3.52 | below the threshold | 4.4 | 4.49 | 3.76 | below the threshold | below the threshold | below the threshold | 3.74 | below the threshold | 3.61 | below the threshold | below the threshold | pKd (RADIL, Q96JH8): 4.29; pKd (RHPN1, Q8TCX5): below the threshold; pKd (SNTG1, Q9NSN8): below the threshold; pKd (SYNJ2BP, P57105): below the threshold; pKd (TJP1_2, Q07157): below the threshold; pKd (TJP3_3, O95049): below the threshold
3 | B3 | below the threshold | 3.8 | 4.62 | below the threshold | below the threshold | 3.48 | below the threshold | below the threshold | below the threshold | below the threshold | below the threshold | 3.84 | below the threshold | below the threshold | below the threshold | below the threshold | below the threshold | 5.15 | 3.81 | below the threshold | pKd (RADIL, Q96JH8): below the threshold; pKd (RHPN1, Q8TCX5): 4.36; pKd (SNTG1, Q9NSN8): below the threshold; pKd (SYNJ2BP, P57105): below the threshold; pKd (TJP1_2, Q07157): below the threshold; pKd (TJP3_3, O95049): below the threshold
4 | B4 | below the threshold | 4.35 | 4.46 | below the threshold | 4.73 | 4.58 | below the threshold | below the threshold | below the threshold | 3.58 | 4.99 | 3.67 | below the threshold | 4.61 | below the threshold | 4.06 | below the threshold | 4.28 | 3.53 | below the threshold | pKd (RADIL, Q96JH8): 5.81; pKd (RHPN1, Q8TCX5): 4.48; pKd (SNTG1, Q9NSN8): 3.71; pKd (SYNJ2BP, P57105): 4.44; pKd (TJP1_2, Q07157): 3.62; pKd (TJP3_3, O95049): 3.53
